pKd: −log10 of the molar value.

The first assay deals with HLA-A*31:01. Briefly: IEDB peptide-MHC binding, purified MHC/competitive/radioactivity; filed as Kd, often an IC50 or EC50 that approximates it; ≥ and ≤ were set here for values at or beyond the usual limits of such assays. The settings on record: source organism: SARS coronavirus Tor2.
Usually pKd stands for the negative decadic logarithm of the Kd, by convention in mol/L. With ALAYYNNSK, the negative logarithm of the Kd (pKd) is 5.12.

Turning to IVNAANIHLK, the pKd is 5.65.

On to TVYVYSRVK, for which the pKd is 6.11.

Turning to ASLPTTIAK, the pKd is 6.93.

Still in this assay, the particulars now being: source organism: Vaccinia virus WR.
Take LIPLSEMVVK: the negative logarithm of the Kd (pKd) is 5.13.

Consider NFIPIIYSK, for which the pKd is 7.86.

With TIQRFSSLRR, the pKd is 8.81.

For the sequence SMTYLYNKY, the negative logarithm of the Kd (pKd) is at most 4.60.

Take NSINNQLMY: the negative-log Kd (pKd) is at most 4.11.

Take VVMAYVGIK: the pKd is 5.61.

Turning to MSSSVDVDIY, the pKd was at most 4.15.

With YVGIKLGDK, the negative logarithm of the Kd (pKd) is at most 4.60.

On to TIDKSSPLY, for which the negative-log Kd (pKd) was at most 4.27.

For GLFDFVNFVK, the negative-log Kd (pKd) was 7.18.

With TFVNFNSVK, the pKd was 6.99.

YILQLIRHGR: the pKd is 7.40.

Regarding STELIRRVR, the negative logarithm of the Kd (pKd) was 7.04.

Consider KAIITPVVFY, for which the pKd was at most 4.15.

As to PSRSKMLKR, the pKd was 5.72.

With TQMRTPLHK, the pKd is 5.45.

The next assay has as its target HLA-A*33:01. The description is as above. The settings on record: source organism: Dengue virus 1 Brazil/97-11/1997.
As to ETLGEKWKR, the pKd was 7.87.

The assay is the same for the next values; noted with them: source organism: Dengue virus 2 Jamaica/1409/1983.
In the case of YMPSMKRFRR, the pKd was 7.97.

As for NMSFRDLGR, the pKd is 8.05.

The assay is the same for the next values; noted with them: source organism: Dengue virus 3 Martinique/1243/1999.
In the case of SAKLQWFVER, the negative logarithm of the Kd (pKd) is 7.08.

Take EITHHAVSR: the pKd is 7.05.

Regarding PFLALGFFLR, the negative-log Kd (pKd) was 6.54.

The assay is the same for the next values; noted with them: source organism: Dengue virus 4 Philippines/H241/1956.
On to TFKVPHAKR, for which the negative-log Kd (pKd) was 7.80.

The assay is the same for the next values; noted with them: source organism: Lassa virus Josiah.
As for FCNLSDAHK, the negative-log Kd (pKd) is 5.36.

On to TCQGSDDIR, for which the pKd is 4.92.

Still in this assay, the particulars now being: source organism: Mammarenavirus machupoense.
Turning to TCNDHYLCLR, the pKd is 6.14.

The assay is the same for the next values; noted with them: source organism: SARS coronavirus Tor2.
Turning to MLLQFAYSNR, the negative logarithm of the Kd (pKd) was 6.94.

For the sequence ALAYYNNSK, the negative-log Kd (pKd) was at most 4.34.

Regarding IVNAANIHLK, the pKd is at most 4.15.

As to TVYVYSRVK, the negative logarithm of the Kd (pKd) was 5.97.

For the sequence ASLPTTIAK, the pKd is at most 4.39.

Staying with this assay, now noted: source organism: Vaccinia virus WR.
For the sequence LIPLSEMVVK, the negative logarithm of the Kd (pKd) was at most 4.60.

For NFIPIIYSK, the pKd is 7.59.

As for TIQRFSSLRR, the pKd was 8.01.

SMTYLYNKY: the pKd is 5.06.

As for NSINNQLMY, the negative logarithm of the Kd (pKd) was at most 4.11.

In the case of VVMAYVGIK, the negative-log Kd (pKd) was at most 4.63.

As for MSSSVDVDIY, the pKd is at most 4.53.

For YVGIKLGDK, the negative-log Kd (pKd) is at most 4.30.

For the sequence TIDKSSPLY, the negative logarithm of the Kd (pKd) was at most 4.11.

GLFDFVNFVK: the negative logarithm of the Kd (pKd) was 5.92.

With TFVNFNSVK, the pKd is 6.71.

Turning to YILQLIRHGR, the pKd was 6.59.

In the case of STELIRRVR, the negative logarithm of the Kd (pKd) was 5.88.

Take KAIITPVVFY: the pKd is at most 4.15.

In the case of PSRSKMLKR, the pKd was at most 4.29.

TQMRTPLHK: the pKd was at most 4.11.

The next assay concerns the target HLA-A*68:01. The description is as above. The settings on record: source organism: Dengue virus 1 Brazil/97-11/1997.
On to ETLGEKWKR, for which the negative-log Kd (pKd) is 7.16.

Regarding HAIGTSITQK, the pKd is 7.46.

As to SAAIDGEYR, the pKd is 7.38.

Consider TTVITPMMR, for which the pKd was 7.46.

For the sequence STSQETWNR, the negative logarithm of the Kd (pKd) is 7.16.

Turning to RTYSDPLALR, the negative logarithm of the Kd (pKd) was 7.73.

Staying with this assay, now noted: source organism: Dengue virus 2 Jamaica/1409/1983.
Regarding YMPSMKRFRR, the pKd is 5.95.

As for YLALLAAFK, the pKd is 7.74.

Staying with this assay, now noted: source organism: Dengue virus 3 Martinique/1243/1999.
Take EITHHAVSR: the negative logarithm of the Kd (pKd) was 7.62.

Turning to MTHRRPTIEK, the negative-log Kd (pKd) was 6.71.

Staying with this assay, now noted: source organism: Dengue virus 4 Philippines/H241/1956.
Turning to VTFKVPHAK, the negative logarithm of the Kd (pKd) is 6.75.

The same assay, now with this note: source organism: Lassa virus Josiah.
As for FCNLSDAHK, the pKd was 5.98.

Consider TCQGSDDIR, for which the pKd is 4.84.

Still in this assay, the particulars now being: source organism: Mammarenavirus machupoense.
In the case of TCNDHYLCLR, the pKd was 5.66.

The assay is the same for the next values; noted with them: source organism: SARS coronavirus Tor2.
On to MLLQFAYSNR, for which the pKd was 7.29.

On to ALAYYNNSK, for which the pKd was 6.08.

In the case of IVNAANIHLK, the pKd is 7.18.

TVYVYSRVK: the pKd was 6.04.

Turning to ASLPTTIAK, the negative-log Kd (pKd) was 5.69.

Staying with this assay, now noted: source organism: Vaccinia virus WR.
For LIPLSEMVVK, the negative logarithm of the Kd (pKd) is 5.83.

On to NFIPIIYSK, for which the negative logarithm of the Kd (pKd) is 7.11.

For the sequence TIQRFSSLRR, the pKd is 8.14.

On to SMTYLYNKY, for which the negative logarithm of the Kd (pKd) was 5.76.

NSINNQLMY: the negative logarithm of the Kd (pKd) was 6.98.

VVMAYVGIK: the pKd is 7.72.

Turning to MSSSVDVDIY, the negative logarithm of the Kd (pKd) was 6.60.

Turning to YVGIKLGDK, the pKd is 5.68.

Consider TIDKSSPLY, for which the negative logarithm of the Kd (pKd) is 6.69.

For the sequence GLFDFVNFVK, the pKd was 8.13.

As to TFVNFNSVK, the negative logarithm of the Kd (pKd) was 7.90.

Take YILQLIRHGR: the pKd is 7.99.

As for STELIRRVR, the negative-log Kd (pKd) is 7.24.

For the sequence KAIITPVVFY, the pKd was 5.17.

Take PSRSKMLKR: the negative-log Kd (pKd) was at most 4.11.

TQMRTPLHK: the pKd is 5.05.

These data come from the Immune Epitope Database (IEDB).
